Each block holds one substance with its values, some of them ahead of it.
Tests used:
[1] = target: 凝集型Aβ1−42 (aggregated synthetic Aβ1-42) (human) (UniProt P05067); test: ELISA on aggregated synthetic Aβ1-42
[2] = target: 可溶性Aβ1−42 (soluble synthetic Aβ1-42 sonicated in DMSO, 125I-labelled) (human) (UniProt P05067); test: capture radioimmunoassay, 50,000 CPM 125I-Aβ1-42 (or 125I-Aβ1-40)
[3] = target: Aβ (β-amyloid peptide; length and physical form not specified in the assay) (human) (UniProt P05067); test: BIAcore (SPR)
[4] = target: Aβ (β-amyloid peptide; length and physical form not specified in the assay) (human) (UniProt P05067); test: Biacore (SPR)

affinity (親和性) [1]: < 1 nM
percent of radioactive counts bound at 10 μg/ml antibody [2]: 2%
Substance: マウス10D5 (mouse monoclonal antibody 10D5)

Kd [3]: 0.88 nM
Substance: マウス3D6 (mouse monoclonal antibody 3D6)

Kd [4]: 38 nM
Substance: 組換えマウス12A11Cγ2a(アイソタイプスイッチ12A11) (antibody)

From patent publication JP2012233002A
